Measured values published in paper PMC3630103, “Development of a Highly Protective Combination Monoclonal Antibody Therapy against Chikungunya Virus” (PLoS Pathogens, 2013).

B1: CHK-263 (mouse monoclonal antibody) (antibody, V domains shown)
VH: QVQLQQSGAELVKPGASVKISCKASGYAFSSYWMNWVKQRPGKGLEWIGQIYPGDGDTNYNGKFKGKATLTADKSSSTAYMQLSSLTSEDSAVYFCARGGLTIDYWGQGTTLTVSS
VL: DIVLTQSPATLSVTPGDSVSLSCRASQSISDNLHWYQQKSHESPGLLIKYASQSISGIPSRFSGSGSGTDFTLSINSVETEDFGMYFCQQSNSWPYTFGGGTKLEIK
B2: CHK-166 (mouse monoclonal antibody) (antibody, V domains shown)
VH: EVRLVESGGGLEQPGGSLKLSCAASGFTFSDYFMYWVRQTPEKRLEWVAYISNGGISTFYSDAVKGRFTISRDNARNTLYLQMSRLKSEDTAIYYCVRQVYGQGYFDYWGQGTTLAVSS
VL: QIVLIQSPAIMSASLGERVTMTCTASSSVSSSYLHWYQQKPGSSPKLWIYSSFSLASGVPARFSGSGSGTSYSLTISTMEAEDAATYYCHQYLRSPWTFGGGSKLEIK
B3: CHK-152 (mouse monoclonal antibody) (antibody, V domains shown)
VH: QVQLQQPGAALVKPGASAMMSCKASGYTFTSYWITWVKQRPGQGLEWIGDIYPGTGRTIYKEKFKTKATLTVDTSSSTAFMQLNSLTSEDSAVYYCARGYGSPYYALDYWGQGTSVTVSS
VL: DIVLTQSPASLAVSQGQRATISCKASQSVDYDGDSYVNWYQQKPGQSPKLLIYDASNLESGIPARFSGSGSGTDFTLNIHPVEEEDVATYYCQESNEDPRTFGGGTKLEIK
notes: mouse VH of CHK-152; mouse IgG heavy-chain constant region; mouse VL of CHK-152; mouse light-chain constant region; also called murine CHK-152; mouse CHK-152
B4: CHK-102 (mouse monoclonal antibody) (antibody, V domains shown)
VH: QVQLQQSGAELVKPGASVKISCKTSGYAFSSFWMHWVKQRPGKGLEWIGQIYPGDGDTNYNGKFKDKATLTADKSSNTAYMQLTSLTSEDSAVYFCARNLLFDYWGQGTTLTVSS
VL: EILMTQSPAILSVSPGERVSFSCRASQSIGSNIHWYQQRTNGSPRLLIKYASESISGIPSRFSGSGSGTDFTLSINSVESEDIADYYCQQNNIWPFTFGSGTKLEIK

Columns and labels:
[1] = biological target: CHIKV pE2-E1 (E3-E2-E1) of the CHIKV-LR strain (Chikungunya virus La Reunion 2006 OPY-1 …, strain); experiment: cell-based or functional assay
CHIKV 181-25 virion = biological target: T1, CHIKV 181-25 virion (Chikungunya virus, strain 181/25 …, UniProt Q88628, strain); experiment: ELISA; virion capture competition ELISA: plates coated with 5 µg/ml CHK-65, 3x10^6 FFU of CHIKV 181-25 captured, incubated with mouse MAbs for one hour, washed, then 125 ng/ml hu-CHK-152, detected with biotin-labeled goat anti-human antibody and HRP-streptavidin; details: one partner purified
T1 construct: E2 envelope glycoprotein of Chikungunya virus strain 181-25, on virions; E1 envelope glycoprotein of Chikungunya virus strain 181-25, on virions; Whole virus particle captured on the plate by the MAb CHK-65; the capsid protein inside the particle is not written as a chain; also called CHIKV virion; virions; copies: 240 + 240

| Binder | EC50 of neutralisation of CHIKV-LR (FRNT on NIH 3T3 cells) [1] [µg/mL] | EC50 of neutralisation of CHIKV-LR (FRNT on Vero cells) [1] [µg/mL] | EC90 of neutralisation of CHIKV-LR (FRNT on Vero cells) [1] [µg/mL] | binding result (CHIKV 181-25 virion) |
| --- | --- | --- | --- | --- |
| B1 | 0.002 | 0.005 | 0.136 |  |
| B2 | 0.202 | 0.154 | 8.6 |  |
| B3 | 0.001 | 0.002 | 0.01 | binds |
| B4 | 0.03 | 0.014 | 0.351 |  |
